Measurements from patent EP4659808A2 (Sanofi, dated 2025).

T1: human beta-DG extracellular domain (human, UniProt Q14118 654-749, biotinylated in the Example 6 ELISA)
T1 construct: extracellular domain; Expression of the soluble human protein is not described; also called hBeta-DG; hbeta-DG
T1 sequence (looked up): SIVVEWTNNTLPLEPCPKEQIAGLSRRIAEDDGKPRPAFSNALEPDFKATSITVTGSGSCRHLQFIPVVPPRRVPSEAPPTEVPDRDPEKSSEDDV


molecular target: T1, human beta-DG extracellular domain; test: SPR (Biacore T100), antibody captured on Protein G chip, BDG in flow, 1:1 model

Row | Kd [nM] | koff [s⁻¹] | kon [M⁻¹ s⁻¹] | Binder
1 | 2.08 | 0.00326 | 1.57e+06 | triAb 3407 (bispecific antibody, human IgG1, kappa, Constant regions with knob-in-hole, NNAS, YTE and RF variants) light 1: EIVLTQSPDFLSVTPKEKVTLTCRASQSISNNLHWYQQKSDQSPKLLIKYASQSISGIPSRFSGSGSGTDFTLTINSVEAEDAATYFCQQSKSWPRTFGGGTKLEIKDKTHTEIVLTQSPDFLSVTPKEKVTLTCRASQSISNNLHWYQQKSDQSPKLLIKYASQSISGIPSRFSGSGSGTDFTLTINSVEAEDAATYFCQQSKSWPRTFGGGTKLEIKDKTHTRTVAAPSVFIFPPSDEQLKSGTASVVCLLNNFYPREAKVQWKVDNALQSGNSQESVTEQDSKDSTYSLSSTLTLSKADYEKHKVYACEVTHQGLSSPVTKSFNRGEC heavy 1: EVQLVESGGGLVKPGGSLRLSCAASGFTFSSYTMSWVRQAPGKGLEWVASISSSGSNTYYPDSVKGRFTISRDNAKNNLYLQMNSLRAEDTALYYCARFDYGSSLDSWGQGTLLTVSSDKTHTEVQLVESGGGLVKPGGSLRLSCAASGFTFSSYTMSWVRQAPGKGLEWVASISSSGSNTYYPDSVKGRFTISRDNAKNNLYLQMNSLRAEDTALYYCARFDYGSSLDSWGQGTLLTVSSDKTHTASTKGPSVFPLAPSSKSTSGGTAALGCLVKDYFPEPVTVSWNSGALTSGVHTFPAVLQSSGSLSSVVTVPSSSLGTQTYICNVNHKPSNTKVDKKVEPKSCDKTHTCPPCPAPELLGGPSVFLFPPKPKDTLYITREPEVTCVVVDVSHEDPEVKFNWYVDGVEVHNAKTKPREEQYNNASRVVSVLTVLHQDWLNGKEYKCKVSNKALPAPIEKTISKAKGQPREPQVYTLPPCRDELTKNQVSLWCLVKGFYPSDIAVEWESNGQPENNYKTTPPVLDSDGSFFKKLTVDKSRWQQGNVFSCSVMHEALHNHYTQKSLSLSPG heavy 2: QVQLVQSGAEVVKPGSSVKVSCEASGFTFTDSVITWVRQRPGQGLEWIGEIYPGSGNFYYNEKFQGRVTITADKSTSTAYMELSSLRSEDTAVYFCAMRRSSWGQGTLVTVSSASTKGPSVFPLAPSSKSTSGGTAALGCLVKDYFPEPVTVSWNSGALTSGVHTFPAVLQSSGSLSSVVTVPSSSLGTQTYICNVNHKPSNTKVDKKVEPKSCDKTHTCPPCPAPELLGGPSVFLFPPKPKDTLYITREPEVTCVVVDVSHEDPEVKFNWYVDGVEVHNAKTKPREEQYNNASRVVSVLTVLHQDWLNGKEYKCKVSNKALPAPIEKTISKAKGQPREPQVCTLPPSRDELTKNQVSLSCAVKGFYPSDIAVEWESNGQPENNYKTTPPVLDSDGSFFLVSKLTVDKSRWQQGNVFSCSVMHEALHNRFTQKSLSLSPG light 2: DVVMTQTPLSLSVTPGQPASISCKSSQTIVHSNSKTYLEWYLQKPGQSPQLLIYKVSSRFSGVPDRFSGSGSGTDFTLKISRVEAEDVGVYYCFQGSHVPLTFGQGTKLEIKRTVAAPSVFIFPPSDEQLKSGTASVVCLLNNFYPREAKVQWKVDNALQSGNSQESVTEQDSKDSTYSLSSTLTLSKADYEKHKVYACEVTHQGLSSPVTKSFNRGEC
2 | 1.6 | 0.00433 | 2.7e+06 | triAb 3423 (bispecific antibody, human IgG1, kappa) light 1: EIVLTQSPDFLSVTPKEKVTLSCRASQSISNYLHWYQQKSDQSPKLLIKYASQSISGIPSRFSGSGSGTDFTLSINSVEAEDAATYFCQQSKSWPRTFGGGTKLEIKDKTHTEIVLTQSPDFLSVTPKEKVTLTCRASQSISNNLHWYQQKSDQSPKLLIKYASQSISGIPSRFSGSGSGTDFTLTINSVEAEDAATYFCQQSKSWPRTFGGGTKLEIKDKTHTRTVAAPSVFIFPPSDEQLKSGTASVVCLLNNFYPREAKVQWKVDNALQSGNSQESVTEQDSKDSTYSLSSTLTLSKADYEKHKVYACEVTHQGLSSPVTKSFNRGEC heavy 1: EVQLVESGGGLVKPGGSLRLSCAASGFTFSSYTMSWVRQAPGKGLEWVASISSSGSNTYYPDSVKGRFTISRDNAKNNLYLQMNSLRAEDTALYYCARFDYGSSLDSWGQGTLLTVSSDKTHTEVQLVESGGGLVKPGGSLRLSCAASGFTFSSYTMSWVRQAPGKGLEWVASISSSGSNTYYPDSVKGRFTISRDNAKNNLYLQMNSLRAEDTALYYCARFDYGSSLDSWGQGTLLTVSSDKTHTASTKGPSVFPLAPSSKSTSGGTAALGCLVKDYFPEPVTVSWNSGALTSGVHTFPAVLQSSGSLSSVVTVPSSSLGTQTYICNVNHKPSNTKVDKKVEPKSCDKTHTCPPCPAPELLGGPSVFLFPPKPKDTLYITREPEVTCVVVDVSHEDPEVKFNWYVDGVEVHNAKTKPREEQYNNASRVVSVLTVLHQDWLNGKEYKCKVSNKALPAPIEKTISKAKGQPREPQVYTLPPCRDELTKNQVSLWCLVKGFYPSDIAVEWESNGQPENNYKTTPPVLDSDGSFFKKLTVDKSRWQQGNVFSCSVMHEALHNHYTQKSLSLSPG heavy 2: QVQLVQSGAEVVKPGSSVKVSCEASGFTFTDSVITWVRQRPGQGLEWIGEIYPGSGNFYYNEKFQGRVTITADKSTSTAYMELSSLRSEDTAVYFCAMRRSSWGQGTLVTVSSASTKGPSVFPLAPSSKSTSGGTAALGCLVKDYFPEPVTVSWNSGALTSGVHTFPAVLQSSGSLSSVVTVPSSSLGTQTYICNVNHKPSNTKVDKKVEPKSCDKTHTCPPCPAPELLGGPSVFLFPPKPKDTLYITREPEVTCVVVDVSHEDPEVKFNWYVDGVEVHNAKTKPREEQYNNASRVVSVLTVLHQDWLNGKEYKCKVSNKALPAPIEKTISKAKGQPREPQVCTLPPSRDELTKNQVSLSCAVKGFYPSDIAVEWESNGQPENNYKTTPPVLDSDGSFFLVSKLTVDKSRWQQGNVFSCSVMHEALHNRFTQKSLSLSPG light 2: DVVMTQTPLSLSVTPGQPASISCKSSQTIVHSNSKTYLEWYLQKPGQSPQLLIYKVSSRFSGVPDRFSGSGSGTDFTLKISRVEAEDVGVYYCFQGSHVPLTFGQGTKLEIKRTVAAPSVFIFPPSDEQLKSGTASVVCLLNNFYPREAKVQWKVDNALQSGNSQESVTEQDSKDSTYSLSSTLTLSKADYEKHKVYACEVTHQGLSSPVTKSFNRGEC
3 | 1.87 | 0.0045 | 2.41e+06 | triAb 3437 (bispecific antibody, human IgG1, kappa) light 1: EIVLTQSPDFLSVTPKEKVTLTCRASQSIGNNLHWYQQKSDQSPKLLIKYASQSISGIPSRFSGSGSGTDFTLTINSVEAEDAATYFCQQSKSWPRTFGGGTKLEIKDKTHTEIVLTQSPDFLSVTPKEKVTLSCRASQSISNYLHWYQQKSDQSPKLLIKYASQSISGIPSRFSGSGSGTDFTLSINSVEAEDAATYFCQQSKSWPRTFGGGTKLEIKDKTHTRTVAAPSVFIFPPSDEQLKSGTASVVCLLNNFYPREAKVQWKVDNALQSGNSQESVTEQDSKDSTYSLSSTLTLSKADYEKHKVYACEVTHQGLSSPVTKSFNRGEC heavy 1: EVQLVESGGGLVKPGGSLRLSCAASGFTFSSYTMSWVRQAPGKGLEWVASISSSGSNTYYPDSVKGRFTISRDNAKNNLYLQMNSLRAEDTALYYCARFDYGSSLDSWGQGTLLTVSSDKTHTEVQLVESGGGLVKPGGSLRLSCAASGFTFSSYTMSWVRQAPGKGLEWVASISSSGSNTYYPDSVKGRFTISRDNAKNNLYLQMNSLRAEDTALYYCARFDYGSSLDSWGQGTLLTVSSDKTHTASTKGPSVFPLAPSSKSTSGGTAALGCLVKDYFPEPVTVSWNSGALTSGVHTFPAVLQSSGSLSSVVTVPSSSLGTQTYICNVNHKPSNTKVDKKVEPKSCDKTHTCPPCPAPELLGGPSVFLFPPKPKDTLYITREPEVTCVVVDVSHEDPEVKFNWYVDGVEVHNAKTKPREEQYNNASRVVSVLTVLHQDWLNGKEYKCKVSNKALPAPIEKTISKAKGQPREPQVYTLPPCRDELTKNQVSLWCLVKGFYPSDIAVEWESNGQPENNYKTTPPVLDSDGSFFKKLTVDKSRWQQGNVFSCSVMHEALHNHYTQKSLSLSPG heavy 2: QVQLVQSGAEVVKPGSSVKVSCEASGFTFTDSVITWVRQRPGQGLEWIGEIYPGSGNFYYNEKFQGRVTITADKSTSTAYMELSSLRSEDTAVYFCAMRRSSWGQGTLVTVSSASTKGPSVFPLAPSSKSTSGGTAALGCLVKDYFPEPVTVSWNSGALTSGVHTFPAVLQSSGSLSSVVTVPSSSLGTQTYICNVNHKPSNTKVDKKVEPKSCDKTHTCPPCPAPELLGGPSVFLFPPKPKDTLYITREPEVTCVVVDVSHEDPEVKFNWYVDGVEVHNAKTKPREEQYNNASRVVSVLTVLHQDWLNGKEYKCKVSNKALPAPIEKTISKAKGQPREPQVCTLPPSRDELTKNQVSLSCAVKGFYPSDIAVEWESNGQPENNYKTTPPVLDSDGSFFLVSKLTVDKSRWQQGNVFSCSVMHEALHNRFTQKSLSLSPG light 2: DVVMTQTPLSLSVTPGQPASISCKSSQTIVHSNSKTYLEWYLQKPGQSPQLLIYKVSSRFSGVPDRFSGSGSGTDFTLKISRVEAEDVGVYYCFQGSHVPLTFGQGTKLEIKRTVAAPSVFIFPPSDEQLKSGTASVVCLLNNFYPREAKVQWKVDNALQSGNSQESVTEQDSKDSTYSLSSTLTLSKADYEKHKVYACEVTHQGLSSPVTKSFNRGEC
